Reference: publication PMC12915131, “Balanced Expression of the Diiron Oxygenase BioE Is Essential for Biotin Homeostasis in Elizabethkingia meningoseptica”

B1: PbioE probe (dsDNA)
DNA 1: TTTTAAATCTGGTACCATTTAAGGTCCGGCAAGATAATAATTTTGCTTCAAAAAAGAG
DNA 2: CTCTTTTTTGAAGCAAAATTATTATCTTGCCGGACCTTAAATGGTACCAGATTTAAAA
B2: PbioB probe (dsDNA)
DNA 1: TGCTTTTATCAAACTCATGTGTAATTACTCTGGTAATCTATATGATTAAGATTTAGAAG
DNA 2: CTTCTAAATCTTAATCATATAGATTACCAGAGTAATTACACATGAGTTTGATAAAAGCA

Target: BioL (EmBioL), MocR-family repressor (Elizabethkingia meningoseptica, UniProt A0A1T3FDC7 1-495)
Assay: EMSA; PLP in protein elution buffer; 5 mM Mg2+; EMSA: 20 mM Tris-HCl pH 8.0, 50 mM KCl, 5 mM MgCl2, 1 mM DTT, 5% glycerol, room temperature 20 min; 5% native PAGE, GelRed stain
Conditions: protein: recombinant; tags: tag-free after Ulp1 cleavage of GST-SUMO; chain copies: 2; blunt

Binder | binding result
B1 | binds
B2 | binds
